# Data from patent publication US20200093909A1 (INSTITUTE FOR RESEARCH IN BIOMEDICINE, published 2020).
# Experiments:
# NANP-peptide = target: T1, NANP-peptide (Plasmodium falciparum); test: ELISA, peptide coated, titrated antibody
# T1 construct: CSP repeat peptide coated at 2 ug/mL in ELISA; also called NANP repeat region peptide
# T1 peptide: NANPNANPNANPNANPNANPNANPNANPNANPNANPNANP
# NPDP-peptide = target: T2, NPDP-peptide (Plasmodium falciparum); test: ELISA, peptide coated, titrated antibody
# T2 peptide: KQPADGNPDPNANPNKNN
# 22-110-peptide = target: T3, 22-110-peptide (Plasmodium falciparum); test: ELISA, peptide coated, titrated antibody
# T3 construct: N-terminal CSP peptide coated at 1 ug/mL in ELISA
# T3 peptide: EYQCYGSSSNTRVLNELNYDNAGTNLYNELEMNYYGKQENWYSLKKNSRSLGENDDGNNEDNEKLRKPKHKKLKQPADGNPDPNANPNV
# [1] = target: T4, CSP C-terminal peptide 282-383 (Plasmodium falciparum); test: ELISA, C-terminal peptide 282-383 coated at 1 ug/ml
# T4 construct: Coated at 1 ug/ml in ELISA; also called C-terminus of CSP
# [2] = target: T4, CSP C-terminal peptide 282-383; test: ELISA, peptide coated at 1 ug/ml, B cell supernatants from 1/3 to 1/648 dilution
binder,measurement,setting,value
"MGV3 (antibody, V domains shown, also called biotin-labeled MGV3; biotinylated MGV3) VH: EVQVVESGGDLVQPGGSLRLSCAVYGFTVSDSYMSWVRQAPGKGLEWVSVIYSGSSTYYIDSVKGRFTISRDRSKNTLYLQMNTLRVEDTALYYCARGPNDYRNRKYYYYMDVWGKGTAVTVSS VL: EIVLTQSPDTLSLSAGERVTLSCRASQSVDSPYLAWYQQRPGQTPRLLIFGASIRATDIPDRFSGGGSGTDFTLTISRLEPEDSGVYYCHQYGNAPYIFGQGTKLEIK",binding result,NANP-peptide,no binding
same,binding result,NPDP-peptide,binds
same,binding result,22-110-peptide,binds
same,binding result,[1],no binding
"MGG2 (antibody, V domains shown) VH: EVQLVESGGGLVQPGGSLRLSCAASGFTLNNYWMHWVRQAPGKGLVWVAHINIDGSTTTYADSVKGRFTISRDNAKNTLYLQMNSLRAEDTAVYYCAKGSIKAGGFWSGYSNWFDPWGQGTLVTVSS VL: QAVVTQEPSLTVSPGGTVTLTCDSDPGPVTSGHYPYWFQQKPGQVPRTLIYDTSNKHSWTPARFSGSLLGGKAALTLSGAQPEDEADYYCLLSYGGAPVFGGGTKLTVL",binding result,NANP-peptide,binds
same,binding result,NPDP-peptide,binds
same,binding result,22-110-peptide,binds
same,binding result,[1],no binding
"MGH2 (antibody, V domains shown) VH: QVQLVESGGGVVQPGGSLRLSCTASGFSFSSYAMHWVRQAPGKGLEWVAYTRYDGSNKFYLDSVQGRFTISRDNSKNTLYLEMDSLRLEDTAVYFCAKVGDGTVAGTIDYWGQGTLVTVSS VL: YIVMTQSPLSLPVTLGQPASISCRSSQSLVYSDGNTYLNWYQQRPGQSPRRLIYKVSNRDSGVPDRFSGSGSGTDFTLKISRVEAEDVGVYYCMQGTHWWTFGQGTKVEIK",EC50,NPDP-peptide,< 0.1 µg/mL
same,binding result,[1],no binding
"MGU3 (antibody, V domains shown) VH: EVLLVESGGGLVQPGGSLRLSCAASGFTFSDYNMHWVRQAPGKGLEWLSYISHSSSTTYYADSVRGRFTISRDNAKNSLYLQMNSLRAEDTAVYYCARLRPLSYSGRYRDYWGQGTLVTVSS VL: DIQMTQSPSSLSASVGDRVTITCQASQDVSNYVNWYQQKPGKAPKVLIYDASTLQTGVPSRFSGSGSGTDFTFSISSLQPEDIATYYCQQYDSLPLTFGGGTKVEIK",binding result,NANP-peptide,no binding
same,binding result,NPDP-peptide,no binding
same,binding result,22-110-peptide,no binding
same,binding result,[2],binds
"MGU1 (antibody, V domains shown) VH: QVQLVESGGGVVQPGRSLRLSCAASGFAFSSYGMNWVRQAPGKGLEWVAVIWHDGTNKYYRDSVKGRFIISRDNAKNTLYLQMDSLSAEDTAMYYCAIWYLDSPDHGFDIWGRGTMVTVSS VL: QLVLTQSPSASASLGVSVTLTCTLNNGHSSNAIAWHQQQPGKGPRYLMKVNSDGSHNKGAAVPDRFSGSSSGTERHLTISSLQSDDEADYYCQAWDSGIWVFGGGTKLTVL",binding result,NANP-peptide,binds
same,binding result,NPDP-peptide,binds
same,binding result,22-110-peptide,binds
same,binding result,[1],no binding
"MGU10 (antibody, V domains shown) VH: QVQLVESGGGVVQPGRSLRLSCAASGFAFSNYGMNWVRQAPGKGLEWVAVIWHDGSLKYYTQSVKGRFTISRDNAKNTLFLQMDSLSADDTAMYYCTVWYLETPDDGFDIWGRGTMVTVSS VL: QLVLTQPPSASASLGVSVTLTCTLSHGHTSKAIAWHQQQPGKGPRYLMKVNSDGSHTKGAAVPDRFSGSTSGAERHFTISNLQSDDEADYYCQAWDSGIWVFGGGTKLTVL",binding result,[1],no binding
"MGU12 (antibody, V domains shown) VH: QVQLVESGGGVVQPGRSLRLSCAASGFSFSSYGMHWVRQAPGKGPEWVAVIWHDGSYSYYADSVRGRFTISRDNSKNTLYLQMNSLRPEDTGMYHCVKVEDYVRGSSHGGAFHIWGQGTMVTVSS VL: DIQMTQSPSTLSASVGDRVTITCRASQTINNWLAWYQWKPGKAPELLIYKASSLESGVPSRFSGSGSGTEFTLTISSLQPDDFATYYCQQYSSYWTFGQGTKVDIK",EC50,NPDP-peptide,< 0.1 µg/mL
same,binding result,[1],no binding
"MGG1 (antibody, V domains shown) VH: EVQLVESGGGVVRPGGSLRLSCAASGFTFDDYAMSWVRQAPGKGLEWVSGINWNGGSTGYADSVKGRFTISRDNAKNSLYLQMNSLRAEDTALYHCARLGRAAREYYYYYMDVWGKGTTVTVSS VL: QSVLTQPPSVSAAPGQKVTISCSGSSSNIGNNYVSWYQQLPGTAPKLLIYDNNKRPSGIPDRFSGSKSGTSATLGITGLQTGDEADYYCGTWDSSLSAGVFGGGTKLTVLG",binding result,22-110-peptide,binds
same,binding result,[1],no binding
"MGU5 (antibody, V domains shown) VH: QVQLVESGGGVVQPGRSLRLSCAASGFSFSSYGMHWVRQAPGKGLDWVALIWHDGTNKFYTDSVKGRFTISRDNSKDTLFLQMNSLRVEDTAVYYCTKRAGWGDALDIWGQGTMVTVSS VL: DIQMTQSPSSLSASVGDRVTITCQASQDISNYLNWYQQKPGKAPKLLIYDASNLETGVPSRFSGSGSATDFTLTISSLQSEDIATYYCQQQRIFGGGTKVEIK",EC50,NPDP-peptide,< 0.1 µg/mL
same,binding result,[1],no binding
"MGU8 (antibody, V domains shown) VH: QVQLVESGGGVVQPGRSLRLSCAAGGFTFSNYGMHWVRQAPGKGLEWVALIWHDGTNKFYADSVKGRFTISRDNSKNTLSLQMDSLTTEDTAIYFCTKRGGWGDGSDIWGQGTMVTVSS VL: DIQMTQSPSSLSASVGDRVTITCQASQDVDNYLNWYQHKPGKAPKLLIYDASNLATGVPSRFSGSGSSTDFTLTISSLQSDDFATYYCQQQRIFGGGTRVEIK",EC50,NPDP-peptide,< 0.1 µg/mL
same,binding result,[1],no binding
"MGG8 (antibody, V domains shown) VH: EVQLVESGGGLVQPGGSLKLSCAASGFMISGSVLHWVRQASGKGLEWLGRIRDKANNEATAYAASVKGRFTISRDDSKDTTYLQMNSLRIEDTAVYYCTRGIIVGDTWHFDPWGQGTLVTVSS VL: DIVMTQTPLSLSVTPGQTASISCKSSESLLRSDGKTYLYWYLQKPGQSPQLLMYEVSKRFSGVPDRFSGSGSGTDFTLKISRVETDDVGIYYCMQSIQLVTFGQGTKVEIK",binding result,NANP-peptide,binds
same,binding result,NPDP-peptide,binds
same,binding result,22-110-peptide,binds
same,binding result,[1],no binding
"MGU11 (antibody, V domains shown) VH: QVQLVESGGGVVQPGRSLRLSCVASGFSFSSYGMHWVRQAPGKGLEWVAVIWYDGTNKYYADSVKGRFTISRDNTKNTLYLQMNSLRADDTAMYYCANDIAGWGYDGSNAWGQGTLVTVSS VL: LSLPVTPGQPASISCKSSQSLVYSDGNTYLNWFQQRPGQSPRRLIYKVSNRDSGVPDRFSGSGSGTDFTLKISRVEAEDVGVYYCMQGTVGFTFGPGTTVDIK",binding result,[1],no binding
"MGG4 (antibody, V domains shown) VH: QVQLVESGGGVVQPGRSLRLSCAASGFRFSDYGMHWVRQAPGKGLEWVALIWYDGSNESYLDSVKGRFTISRDNSKNTLYLQMNNLRTEDTAVYYCAKLLVGITTDVFDVWGQGTVVTVSS VL: DIVMTQSPDSLAVSLGERATINCRSSQSVLSSSNNKNYLAWYQHKPRQPPKLLIYWASTRESGVPDRFSGSGSGTDFTLTISSLQAEDVAVYYCQQYYTASPFFGGGTKVEIK",EC50,NPDP-peptide,< 0.1 µg/mL
same,binding result,[1],no binding
"MGH1 (antibody, V domains shown) VH: QVQLVQSGAEVKKPGASVRVSCKTSGYTFTDYYVHWVRQAPGHGLECMGWINPYIGVSKYAQKFQGRVTLTRDTSISTAYMEISRLTSDDTAVYYCAACSNVGCYVYWGQGSLVTVSS VL: DVVMTQSPLSLPVTLGQPASISCRSSQSLVYSDGNTYLNWFQQRPGQSPRRLIYKVSNRDSGVPDRFSGSGSGTDFTLKISRVEAEDVAIYFCMQGTHWPDTFGQGTKLEIK",binding result,NANP-peptide,binds
same,binding result,NPDP-peptide,binds
same,binding result,22-110-peptide,binds
same,binding result,[1],no binding
"MGH3 (antibody, V domains shown) VH: EVQLVESGGGLVKPGGSLRLSCAASGFTFSSYTMNWVRQAPGKGLEWVSSISSSGSYIYYADSVKGRCTISRDNAKNSLDLQMNSLRAEDAAVYYCARNVLDSSGYPTYFDYWGQGTLVTVSS VL: DIVMTQSPLSLPVTPGEPASISCRSSQSLLYSNGYNYLDWYVQKPGQSPRLLIYLGSNRASGVPDRFSGSGSGTDFTLRISRVEAEDVGFYYCMQAVQTPLTFGGGTKVEIK",binding result,NANP-peptide,binds
same,binding result,[1],no binding
"MGG3 (antibody, V domains shown) VH: QEQLVESGGGVVQPGKSLRLSCAASGFTFSTFGMHWVRQAPGKGLEWVAVIWYDGSSKYHADSVKGRFTISRDNSKSTLYLQMNSLRAEDTAMYYCVKVGANWGWRYFDLWGRGTLVTVSS VL: DIVMTQTPLSLSVTPGQPASISCKSSQSLLHSDGNTYLSWYLQKPGQSPQLLIYEVSSRFSGVPDRFSGSGSGTDFTLKISRVEADDVGVYYCMQGIHSWTFGQGTKVEIK",EC50,NPDP-peptide,< 0.1 µg/mL
same,binding result,[1],no binding
